In patent publication US20260209323A1 (WHITEHEAD INSTITUTE FOR BIOMEDICAL RE SEARCH, published 2026):

T1: GSDMD^CT (human, UniProt P57764)
T1 construct: domain fused to Renilla luciferase; LUMIER bait; also called GSDMD^CT-Renilla luciferase fusion
T1 sequence (single chain, looked up): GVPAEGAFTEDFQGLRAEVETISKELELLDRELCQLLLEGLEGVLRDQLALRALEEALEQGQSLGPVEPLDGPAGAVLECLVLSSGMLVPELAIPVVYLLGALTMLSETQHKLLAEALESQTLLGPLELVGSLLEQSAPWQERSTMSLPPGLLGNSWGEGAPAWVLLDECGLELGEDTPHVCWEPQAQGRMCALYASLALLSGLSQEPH

T2: human gasdermin D (GSDMD), full length (human, UniProt P57764 1-484, chemically biotinylated (sites not given) in the SPR experiments)
T2 construct: Used in SPR (biotinylated), nanoDSF and the liposome assay; the same entry is used for endogenous GSDMD of THP-1 cells; also called wild type, human GSDMD; GSDMD 1-484
T2 sequence: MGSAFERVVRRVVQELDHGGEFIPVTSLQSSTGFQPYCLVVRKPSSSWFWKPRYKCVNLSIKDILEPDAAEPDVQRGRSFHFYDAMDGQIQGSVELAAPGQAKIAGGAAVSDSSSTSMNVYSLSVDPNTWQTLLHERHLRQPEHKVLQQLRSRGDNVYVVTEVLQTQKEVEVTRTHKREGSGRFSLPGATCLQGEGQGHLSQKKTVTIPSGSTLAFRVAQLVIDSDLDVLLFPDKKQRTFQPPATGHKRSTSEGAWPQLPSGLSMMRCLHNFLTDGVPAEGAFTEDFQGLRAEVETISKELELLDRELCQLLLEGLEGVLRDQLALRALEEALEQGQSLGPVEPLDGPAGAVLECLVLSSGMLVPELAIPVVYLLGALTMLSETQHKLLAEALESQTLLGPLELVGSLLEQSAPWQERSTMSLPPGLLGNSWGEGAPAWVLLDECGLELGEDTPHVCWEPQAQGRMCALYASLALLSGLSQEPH

T3: murine GsdmD (murine, UniProt Q9D8T2 1-487)
T3 construct: not shown: Renilla luciferase
T3 sequence (looked up): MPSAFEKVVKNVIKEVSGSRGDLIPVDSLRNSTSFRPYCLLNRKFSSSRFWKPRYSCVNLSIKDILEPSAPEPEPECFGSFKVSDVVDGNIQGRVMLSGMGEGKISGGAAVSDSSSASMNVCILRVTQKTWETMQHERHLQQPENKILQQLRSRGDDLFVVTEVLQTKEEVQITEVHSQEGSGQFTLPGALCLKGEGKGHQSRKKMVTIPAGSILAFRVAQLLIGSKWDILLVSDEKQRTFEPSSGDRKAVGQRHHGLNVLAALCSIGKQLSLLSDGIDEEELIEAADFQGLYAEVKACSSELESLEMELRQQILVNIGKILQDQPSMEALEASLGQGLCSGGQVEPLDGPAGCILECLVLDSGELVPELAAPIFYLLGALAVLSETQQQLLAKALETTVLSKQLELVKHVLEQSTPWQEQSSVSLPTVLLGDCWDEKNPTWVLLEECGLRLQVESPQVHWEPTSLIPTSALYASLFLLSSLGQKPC

B1: VHHGSDMD-1 (VHH)
VHH: QVQLVESGGALVQPGGSLRLSCSASGFTFSKYLMSWYRQAPGKERELVATITTAGGNTNYADSVKGRFTISRDNAKNTVYLQMNSLKPEDTAVYYCKASGGTIRTVNETYWGQGTQVTVSS
notes: Alpaca single-domain antibody; One entry is used for all tag variants; also called VHH AK-A04; VHH-1; not shown: C-terminal tag that differs by assay: LPETG-His (recombinant protein: SPR, nanoDSF, liposome assay), HA-His6 (ELISA), HA
B2: VHHGSDMD-6 (VHH)
VHH: QVQLVETGGGLVQPGGSLRLSCTASGFIFSANQMNWVRQAPGKGLEWLSGISTRGDTTSYADSVKGRFTISRDNAKNTLYLQMNSLQPDDTAVYFCARVCIRGPEPKLRCDDWGQGTQVTVSS
notes: Alpaca single-domain antibody; The crystal model holds VHH-6 residues 1-123; also called VHH AK-G08; VHH-6; not shown: C-terminal HA-His tag (recombinant protein: SPR, nanoDSF, liposome assay, crystal, ELISA)
B3: VHHGSDMD-5 (VHH)
VHH: QVQLVETGGGLVQPGGSLRLSCAASGFVFSINPMNWYRQAPGKERELVAYISMRGSTTNYADSVKGRFIISRDNAKNTLYLQMNSLKPEDTAVYYCNAPSRSVWGQGTQVTVSS
notes: Alpaca single-domain antibody; also called VHH AK-G04; VHH-5; not shown: C-terminal HA-His tag (recombinant protein: SPR, nanoDSF, liposome assay, ELISA) or HA tag (LUMIER)
B4: VHHGSDMD-3 (VHH)
VHH: QVQLVETGGGLVQPGGSLRLSCAASGFTLDIYNMGWFRQAPGKEREGVSCISSRYGTSTYYADSVKGRFTISRDNAKNTVYLQMNNLKPEDTAVYYCATVSWRFTTNQDVCLTPSVSGYWGQGTQVTVSS
notes: Alpaca single-domain antibody; One entry is used for all tag variants; also called VHH AK-H12; VHH-3; not shown: C-terminal tag that differs by assay: LPETG-His (recombinant protein: SPR, nanoDSF, liposome assay), HA-His6 (ELISA), HA
B5: VHH-4 (VHH)
VHH: QVQLVESGGGLVQPGGSLRLSCAASGFTLDRHAIAWFRQAPGLEREGVVCTSSSGAITNTADSVKGRFTISRDDAKNTVYLQMNSLKPEDTAIYYCAVRELWTVQPICEPRPRAYAYWGQGTQVTVSS
notes: Alpaca single-domain antibody; also called VHH AK-C10; GSDMD4; not shown: C-terminal HA-His tag (recombinant protein: SPR, nanoDSF, liposome assay, ELISA)
B6: VHHGSDMD-2 (VHH)
VHH: QVQLVESGGGLVQPGGSLRLSCVDSRSWINVYGANWYRQAPGKERELVAALTSGGTTNYADSVKGRFTISRDNAKNTVYLQMRDLKPEDTAVYYCNLERYTGSSVYPWGQGTQVTVSS
notes: Alpaca single-domain antibody; The crystal model holds VHH-2 residues 1-118; One entry is used for all tag variants; also called VHH AK-C03; VHH-2; not shown: C-terminal tag that differs by assay: LPETG-His (recombinant protein: SPR, nanoDSF, liposome assay, crystal), HA-His6 (E)

How the values were obtained:
GSDMD^CT = biological target: T1, GSDMD^CT; assay: LUMIER co-IP in HEK293T, HA-tagged VHH with Renilla luciferase fusion
[1] = biological target: T2, human gasdermin D (GSDMD), full length; assay: SPR (Biacore 8K), biotinylated GSDMD immobilized, nanobody as analyte, multi-cycle kinetics, 1:1 model
Description: (§1) Chemically biotinylated GSDMD was immobilized on a sensor chip and nanobodies were injected as analytes at the indicated concentrations for 120 s, followed by dissociation for 300 s. Dissociation constants (KDs) were determined from the association and dissociation fits by applying a 1:1 binding model. d, Epitope binning assay.
(§2) Surface plasmon resonance experiments were performed using a Biacore 8K instrument (GE Healthcare). The flow system was cleaned using the maintenance “Desorb” function (Desorb Kit, GE Healthcare). The system was flushed with running buffer (20 mM HEPES (pH 8.0), 200 mM NaCl, 5 mM DTT, 0.05% Tween20) and all steps were performed at 25° C. chip temperature. Chemically biotinylated GSDMD at a concentration of 100 nM was immobilized for 180 s on the flow cell 2 of a Series S Sensor Chip CAP using a biotin capture kit and a flow rate of 30 μl/min. The system was washed for 600 s with running buffer with a flow rate of 30 μl/min. Binding affinities were determined using multi-cycle kinetics. […] The association step was carried out for 120 s and the dissociation step for 300 s.

[2] = biological target: T2, human gasdermin D (GSDMD), full length; assay: nanoDSF thermal shift, equimolar GSDMD and nanobody
Description: (§3) One representative out of three experiments is shown. d, Unfolding temperatures of GSDMD, the nanobodies and GSDMD-nanobody complexes were determined using nanoDSF. The unfolding temperatures of GSDMD at 5 μM and the GSDMD nanobody complexes after addition of 5 μM nanobody are shown. N=x, data represented with SD. e, Unfolding temperatures of GSDMD and GSDMD-nanobody complexes.
(§4) The thermal stability of the nanobodies and their impact on the thermostability of GSDMD was further analyzed using a thermal shift assay by nano-differential scanning fluorimetry (FIG. 11D, E and FIG. 18).

[3] = biological target: T2, human gasdermin D (GSDMD), full length; assay: nanoDSF thermal shift, 5 µM GSDMD + 5 µM VHH; SD 1.0 °C; GSDMD alone 50.2 °C (SD 0.3)
Description: as §3, §4

[4] = biological target: T2, human gasdermin D (GSDMD), full length; assay: nanoDSF titration, 5 µM GSDMD + 5 µM VHH; SD 1.0; GSDMD 5 µM alone 50.2 °C, VHH-1 50 µM alone 67.6 °C
Description: (§5) The melting temperatures of GSDMD and the nanobodies alone were determined at concentrations of 5 and 50 μM, respectively.

murine GsdmD = biological target: T3, murine GsdmD; assay: LUMIER co-IP in HEK293T, HA-tagged VHH with Renilla luciferase fusion
[5] = biological target: T2, human gasdermin D (GSDMD), full length; assay: nanoDSF titration, 5 µM GSDMD + 5 µM VHH; SD 0.5; GSDMD 5 µM alone 50.2 °C, VHH-6 50 µM alone 42.6 and 53.5 °C
Description: as §5

[6] = biological target: T2, human gasdermin D (GSDMD), full length; assay: SPR (Biacore 8K), chemically biotinylated GSDMD immobilised, VHH as analyte, multi-cycle kinetics, 1:1 fit
Description: as §1, §2

[7] = biological target: T2, human gasdermin D (GSDMD), full length; assay: nanoDSF thermal shift, 5 µM GSDMD + 5 µM VHH; SD 0.5 °C; GSDMD alone 50.2 °C (SD 0.3)
Description: as §3, §4

[8] = biological target: T2, human gasdermin D (GSDMD), full length; assay: nanoDSF thermal shift, 5 µM GSDMD + 5 µM VHH; SD 0.8 °C; GSDMD alone 50.2 °C (SD 0.3)
Description: as §3, §4

[9] = biological target: T2, human gasdermin D (GSDMD), full length; assay: nanoDSF titration, 5 µM GSDMD + 5 µM VHH; SD 0.8; GSDMD 5 µM alone 50.2 °C, VHH-5 50 µM alone 58.5 °C
Description: as §5

[10] = biological target: T2, human gasdermin D (GSDMD), full length; assay: nanoDSF titration, 5 µM GSDMD + 5 µM VHH; SD 1.3; GSDMD 5 µM alone 50.2 °C, VHH-3 50 µM alone 59.1 °C
Description: as §5

[11] = biological target: T2, human gasdermin D (GSDMD), full length; assay: nanoDSF thermal shift, 5 µM GSDMD + 5 µM VHH; SD 1.3 °C; GSDMD alone 50.2 °C (SD 0.3)
Description: as §3, §4

[12] = biological target: T2, human gasdermin D (GSDMD), full length; assay: nanoDSF titration, 5 µM GSDMD + 5 µM VHH; SD 1.0; GSDMD 5 µM alone 50.2 °C, VHH-2 50 µM alone 58.0 °C
Description: as §5

Row | Binder | binding result (GSDMD^CT) | Kd [1] [nM] | increase of the thermal stability of GSDMD [2] [°C] | Tm of GSDMD with the VHH [3] [°C] | binding result (murine GsdmD) | further results
1 | B1 | no binding | 0.55 | ≤ 9.4 | 59.6 | no binding | Tm of GSDMD with the VHH [4]: 59.6 °C
2 | B2 |  |  | 4.2 |  |  | Tm of GSDMD with the VHH [5]: 54.4 °C; Kd [6]: 280 nM; Tm of GSDMD with the VHH [7]: 54.4 °C
3 | B3 | no binding | 4.14 |  |  |  | Tm of GSDMD with the VHH [8]: 48.8 °C; decrease of the melting temperature of GSDMD [2]: ≤ 2.5 °C; Tm of GSDMD with the VHH [9]: 48.8 °C
4 | B4 | no binding | 2.19 | ≤ 9.4 |  |  | Tm of GSDMD with the VHH [10]: 54.1 °C; Tm of GSDMD with the VHH [11]: 54.1 °C
5 | B5 | no binding |  |  |  |  | 
6 | B6 | no binding | 8.24 | ≤ 9.4 | 56 | no binding | Tm of GSDMD with the VHH [12]: 56 °C
